{
  "source": "paper PMC6882821",
  "about": "“Production of recombinant soluble dimeric C-type lectin-like receptors of rat natural killer cells” (Scientific Reports, 2019)",
  "key": {"[1]": {"target": "Clr-11-FcHis fusion protein (Clr-11^WAG in pHLsec-FcHis, uncleaved) (rat (WAG strain) | human) (UniProt Q0H8B9)", "assay": "SEC; gel filtration on Superdex 200 HR 10/30, room temperature"}, "[2]": {"target": "Clr-11-FcHis fusion protein (Clr-11^WAG in pHLsec-FcHis, uncleaved) (rat (WAG strain) | human) (UniProt Q0H8B9)", "assay": "AUC; sedimentation velocity, 0.2 mg/ml, 48000 rpm, 20 °C, 10 mM HEPES pH 7.0, 150 mM NaCl, 10 mM NaN3, c(s) model"}, "[3]": {"target": "Clr-11^WAG V65-M207, histidine-tagged, expressed from pHLsec (rat (WAG strain)) (UniProt Q0H8B9)", "assay": "SEC; gel filtration on Superdex 200 HR 10/30, room temperature"}, "[4]": {"target": "Clr-11^WAG V65-M207, histidine-tagged, expressed from pHLsec (rat (WAG strain)) (UniProt Q0H8B9)", "assay": "AUC; sedimentation equilibrium, 0.1 mg/ml, 12-15-18-21-24000 rpm, 4 °C, non-interacting discrete species model"}, "[5]": {"target": "Clr-11^WAG V65-M207, histidine-tagged, expressed from pHLsec (rat (WAG strain)) (UniProt Q0H8B9)", "assay": "AUC; sedimentation velocity, 0.2 mg/ml, 48000 rpm, 20 °C, 10 mM HEPES pH 7.0, 150 mM NaCl, 10 mM NaN3, c(s) model"}, "[6]": {"target": "Clr-11^WAG V65-M207, histidine-tagged, expressed from pHLsec (rat (WAG strain)) (UniProt Q0H8B9)", "assay": "non-reducing SDS-PAGE with Western blot; small-scale expression test; 10 ul of culture supernatant 3 days after transfection, 15% SDS-PAGE under non-reducing conditions, detected by PentaHis mAb; shows covalent dimers"}, "[7]": {"target": "Clr-11^WAG cleaved from the pHLsec-FcHis fusion by HRV 3C protease (rat (WAG strain)) (UniProt Q0H8B9)", "assay": "SEC; gel filtration on Superdex 200 HR 10/30, room temperature"}, "[8]": {"target": "Clr-11^WAG cleaved from the pHLsec-FcHis fusion by HRV 3C protease (rat (WAG strain)) (UniProt Q0H8B9)", "assay": "AUC; sedimentation velocity, 0.2 mg/ml, 48000 rpm, 20 °C, 10 mM HEPES pH 7.0, 150 mM NaCl, 10 mM NaN3, c(s) model"}, "[9]": {"target": "NKR-P1B^SD C-terminal FcHis fusion protein (pHLsec-FcHis, uncleaved) (rat (SD strain) | human) (UniProt A4KWA1)", "assay": "not stated; data not shown; purified C-terminal FcHis fusion proteins"}, "[10]": {"target": "NKR-P1B^WAG C-terminal FcHis fusion protein (pHLsec-FcHis, uncleaved) (rat (WAG strain) | human) (UniProt Q5NKN4)", "assay": "not stated; data not shown; purified C-terminal FcHis fusion proteins"}, "[11]": {"target": "pYD5 Fc-NKR-P1B^SD fusion protein (uncleaved) (human | rat (SD strain)) (UniProt A4KWA1)", "assay": "SEC; gel filtration on Superdex 200 HR 10/30, room temperature"}, "[12]": {"target": "pYD5 Fc-NKR-P1B^SD fusion protein (uncleaved) (human | rat (SD strain)) (UniProt A4KWA1)", "assay": "AUC; sedimentation velocity, 0.2 mg/ml, 48000 rpm, 20 °C, 10 mM HEPES pH 7.0, 150 mM NaCl, 10 mM NaN3, c(s) model"}, "[13]": {"target": "pYD5 Fc-NKR-P1B^WAG fusion protein (uncleaved) (human | rat (WAG strain)) (UniProt Q5NKN4)", "assay": "SEC; gel filtration on Superdex 200 HR 10/30, room temperature"}, "[14]": {"target": "pYD5 Fc-NKR-P1B^WAG fusion protein (uncleaved) (human | rat (WAG strain)) (UniProt Q5NKN4)", "assay": "AUC; sedimentation velocity, 0.2 mg/ml, 48000 rpm, 20 °C, 10 mM HEPES pH 7.0, 150 mM NaCl, 10 mM NaN3, c(s) model"}, "[15]": {"target": "the molecule itself", "assay": "non-reducing SDS-PAGE with Western blot; small-scale expression test; 10 ul of culture supernatant 3 days after transfection, 15% SDS-PAGE under non-reducing conditions, detected by PentaHis mAb; shows covalent dimers"}, "[16]": {"target": "the molecule itself", "assay": "SEC + other: non-reducing SDS-PAGE; gel filtration on Superdex 200 HR 10/30 after TEV cleavage, and 4-20% SDS-PAGE under reducing and non-reducing conditions"}},
  "data": [
    {"molecule": "Clr-11-FcHis fusion protein (Clr-11^WAG in pHLsec-FcHis, uncleaved) (from UniProt Q0H8B9 65-207) (Fc fusion)", "values": [
      {"measurement": "stoichiometry N", "setting": "[1]", "value": 2},
      {"measurement": "stoichiometry N", "setting": "[2]", "value": 2}
    ]},
    {"molecule": "Clr-11^WAG V65-M207, histidine-tagged, expressed from pHLsec (from UniProt Q0H8B9 65-207) (domain or fragment)", "values": [
      {"measurement": "stoichiometry N", "setting": "[3]", "value": 2},
      {"measurement": "stoichiometry N", "setting": "[4]", "value": 2},
      {"measurement": "stoichiometry N", "setting": "[5]", "value": 2},
      {"measurement": "stoichiometry N", "setting": "[6]", "value": 2}
    ]},
    {"molecule": "Clr-11^WAG cleaved from the pHLsec-FcHis fusion by HRV 3C protease (from UniProt Q0H8B9 65-207) (domain or fragment)", "values": [
      {"measurement": "stoichiometry N", "setting": "[7]", "value": 2},
      {"measurement": "stoichiometry N", "setting": "[8]", "value": 2}
    ]},
    {"molecule": "NKR-P1B^SD C-terminal FcHis fusion protein (pHLsec-FcHis, uncleaved) (from UniProt A4KWA1 78-223) (Fc fusion)", "values": [
      {"measurement": "stoichiometry N", "setting": "[9]", "value": 2}
    ]},
    {"molecule": "NKR-P1B^WAG C-terminal FcHis fusion protein (pHLsec-FcHis, uncleaved) (from UniProt Q5NKN4 78-223) (Fc fusion)", "values": [
      {"measurement": "stoichiometry N", "setting": "[10]", "value": 2}
    ]},
    {"molecule": "pYD5 Fc-NKR-P1B^SD fusion protein (uncleaved) (from UniProt A4KWA1 78-223) (Fc fusion)", "values": [
      {"measurement": "stoichiometry N", "setting": "[11]", "value": 2},
      {"measurement": "stoichiometry N", "setting": "[12]", "value": 2}
    ]},
    {"molecule": "pYD5 Fc-NKR-P1B^WAG fusion protein (uncleaved) (from UniProt Q5NKN4 78-223) (Fc fusion)", "values": [
      {"measurement": "stoichiometry N", "setting": "[13]", "value": 2},
      {"measurement": "stoichiometry N", "setting": "[14]", "value": 2}
    ]},
    {"molecule": "NKR-P1B^WAG V78-S223, histidine-tagged, expressed from pHLsec (domain or fragment, rat (WAG strain), residues that the pHLsec vector adds to the N-terminus of the construct; rat NKR-P1B of the WAG strain, extracellular part with slightly shortened N-terminus, V78-S223; source: suspension-adapted HEK293T, transiently transfected, secreted, culture supernatant) ETGVQENRTKTTDSPTKLKCPKDWHSHQDKCFHVSQAPNTWNKSLADCGGKGATLLLIQDQEELRFLRNLTKGKDRSFWIGLNYTLPDKNWKWINSSTLNSDVLSIFGDTKQNSCASISQDKVLSESCDSDNLWICQKELKCECMCNGS", "values": [
      {"measurement": "stoichiometry N", "setting": "[15]", "value": 2}
    ]},
    {"molecule": "NKR-P1B^SD ectodomain cleaved from the pYD5 Fc fusion by TEV protease (domain or fragment, rat (SD strain), UniProt A4KWA1 78-223, looked up, rat NKR-P1B of the SD strain, ectodomain construct V78-S223; Obtained as a separable mixture of monomer and covalent dimer; also called pYD5_NKR-P1B^SD (monomeric and dimeric fractions); not shown: Fc (human IgG), N-terminal, cleaved) VQENRTKTTDSPAKLKCPKDWHSHQDKCFHVSQTSITWKGSLADCGGKGATLLLVQDQEELRFLRNLTKRISSSFWIGLSYTLSDEKWKWINGSTLNSDALNITGDTEKDSCASVSQDKVLSESCDSDNIWICQKELKRESTCNDS", "values": [
      {"measurement": "stoichiometry N", "setting": "[16]", "value": 2}
    ]},
    {"molecule": "NKR-P1B^WAG ectodomain cleaved from the pYD5 Fc fusion by TEV protease (domain or fragment, rat (WAG strain), UniProt Q5NKN4 78-223, looked up, rat NKR-P1B of the WAG strain, ectodomain construct V78-S223; Disulphide dimer; also called pYD5_NKR-P1B^WAG cleaved off by TEV protease; not shown: Fc (human IgG), N-terminal, cleaved) VQENRTKTTDSPTKLKCPKDWHSHQDKCFHVSQAPNTWNKSLADCGGKGATLLLIQDQEELRFLRNLTKGKDRSFWIGLNYTLPDKNWKWINSSTLNSDVLSIFGDTKQNSCASISQDKVLSESCDSDNLWICQKELKCECMCNGS", "values": [
      {"measurement": "stoichiometry N", "setting": "[16]", "value": 2}
    ]}
  ]
}
